Results reported in PMC6863848, “Selection of an optimal macrocyclic chelator improves the imaging of prostate cancer using cobalt-labeled GRPR antagonist RM26” (Scientific Reports, 2019).

Columns and labels:
in vivo = conditions: female, BALB/c nu/nu, mouse, iv, 45 pmol per mouse, total radioactivity
Protocol: (§1) Euthanasia was performed by intraperitoneal injection of Ketalar-Rompun solution (10 mg/mL Ketalar and 1 mg/mL Rompun; 20 µL/g body weight) and all efforts were made to minimize suffering. Groups of 4 mice per data point were used.
(§2) Blood samples were collected by heart puncture. Lung, liver, spleen, pancreas, stomach, small intestines, kidneys, muscle, bone, and the rest of gastrointestinal tract with its content were collected, weighed and measured in a gamma-counter. The organ uptake values were expressed as a percentage of injected dose per gram of tissue weight (%ID/g) with the exception of gastrointestinal tract and the remaining carcass, which were calculated as %ID per whole sample.
(§3) The biodistribution and targeting properties of ^57Co-X-PEG2-RM26 were evaluated in female BALB/c nu/nu mice (weight: 18 ± 2 g). GRPR-expressing xenografts were established by subcutaneous injection of 8 × 10^6 PC-3 cells/mouse, 2 weeks prior to the experiment. At the time of experiment, the mice were intravenously injected with ^57Co-X-PEG2-RM26 (25 kBq, 45 pmol in 100 µL PBS per mouse) and were euthanized 3 and 24 h pi.

[1] = Ex vivo biodistribution and tumor targeting; conditions: female, BALB/c nu/nu, mouse, iv, 45 pmol per mouse, total radioactivity; for tissue uptake at 3 h / tissue uptake at 24 h: PC-3-xenografted BALB/c nu/nu mice, iv 25 kBq/45 pmol, 4 mice per data point; for tissue uptake at 3 h: 3 h pi; for tissue uptake at 24 h: 24 h pi
Protocol: as §1, §2, §3

[2] = test system: PC-3 xenografted BALB/c nu/nu mice; test: Ex vivo biodistribution and tumor targeting; conditions: 24 h pi
Protocol: as §1, §2, §3

[3] = gastrointestinal tract with content (whole sample)
[4] = remaining carcass (whole sample)
[5] = small intestine, Sm. Int. uptake

Structure (SMILES)	tissue uptake at 3 h ([1]; blood, Blood uptake) [%ID/g]	tissue uptake at 24 h ([1]; blood, Blood uptake) [%ID/g]	tissue uptake at 3 h ([1]; bone, Bone uptake) [%ID/g]	tissue uptake dose at 3 h [1, 3] [%ID]	tissue uptake dose at 24 h [1, 3] [%ID]	tissue uptake at 3 h ([1]; kidneys, Kidneys uptake) [%ID/g]	tissue uptake at 24 h ([1]; liver, Liver uptake) [%ID/g]	tissue uptake at 3 h ([1]; lung, Lung uptake) [%ID/g]	tissue uptake at 24 h ([1]; lung, Lung uptake) [%ID/g]	tissue uptake at 3 h ([1]; muscle, Muscle uptake) [%ID/g]	tissue uptake at 24 h ([1]; muscle, Muscle uptake) [%ID/g]	tissue uptake at 24 h ([1]; pancreas, Pancreas uptake) [%ID/g]	tissue uptake dose at 3 h [1, 4] [%ID]	tissue uptake dose at 24 h [1, 4] [%ID]	tissue uptake at 3 h [1, 5] [%ID/g]	tissue uptake at 24 h ([1]; spleen, Spleen uptake) [%ID/g]	tissue uptake at 3 h ([1]; stomach, Stomach uptake) [%ID/g]	tissue uptake at 3 h ([1]; tumor, Tumor uptake) [%ID/g]	tissue uptake at 24 h ([1]; tumor, Tumor uptake) [%ID/g]	tissue uptake at 24 h ([1]; bone, Bone uptake) [%ID/g]	other results
CC(C)C[C@H](NC(=O)C[C@H](O)[C@H](CC(C)C)NC(=O)[C@H](Cc1c[nH]cn1)NC(=O)CNC(=O)[C@@H](NC(=O)[C@H](C)NC(=O)[C@H](Cc1c[nH]c2ccccc12)NC(=O)[C@H](CCC(N)=O)NC(=O)[C@@H](Cc1ccccc1)NC(=O)COCCOCCNC(=O)CN1CCN(CC(=O)O)CCN(CC(=O)O)CC1)C(C)C)C(N)=O [NOTA]	0.019 ± 0.004	0.006 ± 0.001	0.04 ± 0.04	0.6 ± 0.1	0.09 ± 0.03	0.93 ± 0.05	0.025 ± 0.005	0.065 ± 0.005	0.09 ± 0.15	0.08 ± 0.1	0.011 ± 0.005	0.023 ± 0.002	0.6 ± 0.4	0.18 ± 0.06	0.098 ± 0.028	0.029 ± 0.004	0.3 ± 0.1	7.3 ± 1.3	2.1 ± 0.2	–	tissue uptake at 24 h (in vivo; Bone uptake): 0.08 ± 0.05 %ID/g; tissue uptake at 24 h (in vivo; Kidneys uptake): 0.09 ± 0.03 %ID/g; tissue uptake at 3 h (in vivo; Liver uptake): 0.07 ± 0.004 %ID/g; tissue uptake at 3 h (in vivo; Pancreas uptake): 0.21 ± 0.052 %ID/g; tissue uptake at 24 h (in vivo; Sm. Int. uptake): 0.06 ± 0.03 %ID/g; tissue uptake at 3 h (in vivo; Spleen uptake): 0.05 ± 0.008 %ID/g; tissue uptake at 24 h (in vivo; Stomach uptake): 0.05 ± 0.03 %ID/g
CC(C)C[C@H](NC(=O)C[C@H](O)[C@H](CC(C)C)NC(=O)[C@H](Cc1c[nH]cn1)NC(=O)CNC(=O)[C@@H](NC(=O)[C@H](C)NC(=O)[C@H](Cc1c[nH]c2ccccc12)NC(=O)[C@H](CCC(N)=O)NC(=O)[C@@H](Cc1ccccc1)NC(=O)COCCOCCNC(=O)CCC(C(=O)O)N1CCN(CC(=O)O)CCN(CC(=O)O)CCN(CC(=O)O)CC1)C(C)C)C(N)=O (stereo partly shown) [DOTAGA]	0.02 ± 0.01	0.005 ± 0.002	0.02 ± 0.005	1 ± 0.5	0.1 ± 0.1	3.5 ± 0.4	0.04 ± 0.01	0.07 ± 0.03	0.02 ± 0.02	0.04 ± 0.01	0.007 ± 0.007	0.028 ± 0.009	1.9 ± 0.9	0.3 ± 0.3	0.13 ± 0.05	0.016 ± 0.009	0.4 ± 0.3	6.9 ± 2.7	2.3 ± 0.7	0.02 ± 0.03	tissue uptake at 24 h ([1]; kidneys, Kidneys uptake): 1.8 ± 0.5 %ID/g; tissue uptake at 3 h ([1]; liver, Liver uptake): 0.08 ± 0.02 %ID/g; tissue uptake at 3 h ([1]; pancreas, Pancreas uptake): 0.4 ± 0.1 %ID/g; tissue uptake at 24 h [1, 5]: 0.02 ± 0.01 %ID/g; tissue uptake at 3 h ([1]; spleen, Spleen uptake): 0.08 ± 0.05 %ID/g; tissue uptake at 24 h ([1]; stomach, Stomach uptake): 0.018 ± 0.004 %ID/g; Kidney uptake, higher compared to NODAGA- and DOTA-containing analogues [2]: twofold higher
CC(C)C[C@H](NC(=O)C[C@H](O)[C@H](CC(C)C)NC(=O)[C@H](Cc1c[nH]cn1)NC(=O)CNC(=O)[C@@H](NC(=O)[C@H](C)NC(=O)[C@H](Cc1c[nH]c2ccccc12)NC(=O)[C@H](CCC(N)=O)NC(=O)[C@@H](Cc1ccccc1)NC(=O)COCCOCCNC(=O)CCC(C(=O)O)N1CCN(CC(=O)O)CCN(CC(=O)O)CC1)C(C)C)C(N)=O (stereo partly shown) [NODAGA]	0.032 ± 0.009	0.006 ± 0.003	0.1 ± 0.2	5 ± 1	0.3 ± 0.2	2.5 ± 0.8	0.02 ± 0.01	0.05 ± 0.01	0.02 ± 0.01	0.02 ± 0.01	0.006 ± 0.005	0.02 ± 0.03	1.3 ± 0.3	0.1 ± 0.1	0.3 ± 0.3	0.009 ± 0.002	0.39 ± 0.09	6.3 ± 1.2	2.3 ± 0.9	0.007 ± 0.002	tissue uptake at 24 h ([1]; kidneys, Kidneys uptake): 0.7 ± 0.4 %ID/g; tissue uptake at 3 h ([1]; liver, Liver uptake): 0.08 ± 0.02 %ID/g; tissue uptake at 3 h ([1]; pancreas, Pancreas uptake): 0.3 ± 0.2 %ID/g; tissue uptake at 24 h [1, 5]: 0.015 ± 0.007 %ID/g; tissue uptake at 3 h ([1]; spleen, Spleen uptake): 0.05 ± 0.02 %ID/g; tissue uptake at 24 h ([1]; stomach, Stomach uptake): 0.04 ± 0.01 %ID/g
